This note sets out measurements from publication PMC10397247.

Test in all cases: two-hybrid library CCmax;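 note: natural log of median RNA to DNA barcode read ratio; higher means stronger binding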
One assay addresses T1, 4H2143-AA.
T1 chain: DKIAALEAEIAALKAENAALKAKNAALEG

A further assay has as its target T2, 4H2148-AA.
T2 chain: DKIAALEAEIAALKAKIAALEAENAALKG
The conditions noted are these: mean of both orientations.

The target of another assay is T3, 4H2290-AA.
T3 chain: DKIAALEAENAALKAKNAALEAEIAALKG
The conditions noted are these: mean of both orientations.

For a further assay, the target named is T4, 4H2447-AA.
T4 chain: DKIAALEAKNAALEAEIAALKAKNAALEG
The conditions noted are these: mean of both orientations.

A further assay concerns the target T5, 4H2458-AA.
T5 chain: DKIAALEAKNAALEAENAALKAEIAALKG
The conditions noted are these: mean of both orientations.

The target of another assay is T6, 4H3330-AA.
T6 chain: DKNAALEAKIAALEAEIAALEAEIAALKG
The conditions noted are these: mean of both orientations.

The next assay has as its target T7, 4H716-AA.
T7 chain: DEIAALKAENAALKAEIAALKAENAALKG
The conditions noted are these: mean of both orientations.

The target in the next assay is T8, 4H733-AA.
T8 chain: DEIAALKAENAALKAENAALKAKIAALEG
The conditions noted are these: mean of both orientations.

The target of another assay is T9, 4H807-AA.
T9 chain: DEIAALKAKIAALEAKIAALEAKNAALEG
The conditions noted are these: mean of both orientations.

The next assay has as its target T10, APC1015-AA.
T10 chain: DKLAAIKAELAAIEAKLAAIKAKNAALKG
The conditions noted are these: mean of both orientations.

The next assay addresses T11, APC1434-AA.
T11 chain: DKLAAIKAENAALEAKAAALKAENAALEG
The conditions noted are these: mean of both orientations.

The target in a further assay is T12, APC2237-AA.
T12 chain: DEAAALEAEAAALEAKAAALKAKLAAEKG
The conditions noted are these: mean of both orientations.

The target of a further assay is T13, APC232-AA.
T13 chain: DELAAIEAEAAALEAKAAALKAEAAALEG
The conditions noted are these: mean of both orientations.

A further assay has as its target T14, APC2405-AA.
T14 chain: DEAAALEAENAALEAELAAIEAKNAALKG
The conditions noted are these: mean of both orientations.

In a further assay the target is T15, APC3645-AA.
T15 chain: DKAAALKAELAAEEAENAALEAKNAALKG
The conditions noted are these: mean of both orientations.

The target of another assay is T16, APC4011-AA.
T16 chain: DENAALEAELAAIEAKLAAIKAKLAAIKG
The conditions noted are these: mean of both orientations.

The target of a further assay is T17, APC4264-AA.
T17 chain: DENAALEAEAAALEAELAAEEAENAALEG
The conditions noted are these: mean of both orientations.

The next assay addresses T18, APC4436-AA.
T18 chain: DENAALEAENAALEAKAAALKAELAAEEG
The conditions noted are these: mean of both orientations.

The next assay addresses T19, APC5383-AA.
T19 chain: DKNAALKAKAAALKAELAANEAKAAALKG
The conditions noted are these: mean of both orientations.

For the next assay, the target named is T20, APC6108-AA.
T20 chain: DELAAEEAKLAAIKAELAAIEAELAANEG
The conditions noted are these: mean of both orientations.

For a further assay, the target named is T21, APC7099-AA.
T21 chain: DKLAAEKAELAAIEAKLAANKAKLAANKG
The conditions noted are these: mean of both orientations.

In the next assay the target is T22, APC8191-AA.
T22 chain: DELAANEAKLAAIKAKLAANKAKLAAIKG
The conditions noted are these: mean of both orientations.

In another assay the target is T23, APC8910-AA.
T23 chain: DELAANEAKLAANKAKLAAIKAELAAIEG
The conditions noted are these: mean of both orientations.

For another assay, the target named is T24, APC9096-AA.
T24 chain: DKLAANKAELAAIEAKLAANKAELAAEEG
The conditions noted are these: mean of both orientations.

Another assay deals with T25, APC9319-AA.
T25 chain: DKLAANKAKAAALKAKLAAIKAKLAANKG
The conditions noted are these: mean of both orientations.

The next assay deals with T26, P2-AA-1HGe-A.
T26 chain: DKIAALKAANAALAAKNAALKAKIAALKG
The conditions noted are these: mean of both orientations.

A further assay concerns the target T27, P2-AA-1HGe-D.
T27 chain: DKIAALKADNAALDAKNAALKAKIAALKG
The conditions noted are these: mean of both orientations.

Another assay concerns the target T28, P2-AA-1HGe-M.
T28 chain: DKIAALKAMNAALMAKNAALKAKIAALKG
The conditions noted are these: mean of both orientations.

A further assay has as its target T29, P2-AA-1HGe-Q.
T29 chain: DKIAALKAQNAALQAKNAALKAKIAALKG
The conditions noted are these: mean of both orientations.

A further assay concerns the target T30, P2-AA-1HGe-T.
T30 chain: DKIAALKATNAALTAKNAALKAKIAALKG
The conditions noted are these: mean of both orientations.

The target of a further assay is T31, P2-AA-1HGe-W.
T31 chain: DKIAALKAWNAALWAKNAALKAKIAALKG
The conditions noted are these: mean of both orientations.

In the next assay the target is T32, P2-AA.
T32 chain: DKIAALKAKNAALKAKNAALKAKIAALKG
The conditions noted are these: mean of both orientations.

On to DKIAALEAEIAALKAENAALKAKNAALEG [4H2143-AA], for which the interaction score with 4H2143-AA is 2.12; with 4H2148-AA, -1.43; with 4H2290-AA, -1.42; with 4H2447-AA it was -1.64; with 4H2458-AA, -1.32; with 4H3330-AA, -0.836. Also, the interaction score with 4H716-AA is -1.59; with 4H733-AA, -1.41; with 4H807-AA, -1.57; with APC1015-AA it was -1.78; in the assay with APC1434-AA it was -1.23; in the assay with APC2237-AA, -1.56. In addition, the interaction score is -2.06 with APC232-AA; -1.48 with APC2405-AA; -1.25 with APC3645-AA; -0.0916 with APC4011-AA; -1.81 with APC4264-AA; -1.85 with APC4436-AA. Also, the interaction score in the assay with APC5383-AA is -1.98; with APC6108-AA, -1.49; with APC7099-AA it was -1.51; with APC8191-AA, -1.3; with APC8910-AA it was -1.84; in the assay with APC9096-AA, -1.82. This molecule had an interaction score in the assay with APC9319-AA of -1.6.

Regarding DEIAALEAMNAALMAENAALEAEIAALEG [P1-AA-1HGe-M], the interaction score with P2-AA-1HGe-A came out at 2.28; in the assay with P2-AA-1HGe-D, 2.01; with P2-AA-1HGe-M, 2.29; in the assay with P2-AA-1HGe-Q, 1.9; with P2-AA-1HGe-T, 1.98; with P2-AA-1HGe-W it was 2.3. The molecule further had an interaction score with P2-AA of 2.14.
